Molecular target: Class A TC protein XptA2wi (Xenorhabdus nematophilus xwi)
Test: cell-based or functional assay

For TcdB2+TccC3 complex (non fused), the killing/stunting activity against corn earworm larvae, XptA2 held constant at 250 ng/cm^2 was 7.8 ng/cm^2.
